Measured values taken from article PMC5576923 (eLife, 2017).

B1: GFP-labeled PTEN C124S-T383A (natural protein, UniProt P60484 1-403, looked up)
chain: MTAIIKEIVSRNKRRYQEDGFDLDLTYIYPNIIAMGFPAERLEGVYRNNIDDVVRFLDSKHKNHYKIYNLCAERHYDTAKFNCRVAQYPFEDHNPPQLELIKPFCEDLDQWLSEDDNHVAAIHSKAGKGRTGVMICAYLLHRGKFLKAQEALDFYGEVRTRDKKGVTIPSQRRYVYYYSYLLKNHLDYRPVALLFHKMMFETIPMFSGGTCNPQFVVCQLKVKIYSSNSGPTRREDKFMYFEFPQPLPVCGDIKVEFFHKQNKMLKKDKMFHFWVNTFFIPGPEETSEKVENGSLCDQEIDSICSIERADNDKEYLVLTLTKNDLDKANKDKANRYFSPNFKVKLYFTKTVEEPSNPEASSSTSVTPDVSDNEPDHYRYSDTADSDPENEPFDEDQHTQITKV
notes: also called CS-T383A; source: PTEN-/- HCT116 cells, transfected, in fixed cells
B2: PTEN (phosphatase and tensin homolog) (natural protein)
chain: not shown
notes: source: endogenous, HCT116 cells (fixed cells)
B3: ARHGAP21 (natural protein, human (endogenous in Caco-2 and HCT116), UniProt Q5T5U3 1-1958, looked up)
chain: MMATRRTGLSEGDGDKLKACEVSKNKDGKEQSETVSLSEDETFSWPGPKTVTLKRTSQGFGFTLRHFIVYPPESAIQFSYKDEENGNRGGKQRNRLEPMDTIFVKQVKEGGPAFEAGLCTGDRIIKVNGESVIGKTYSQVIALIQNSDTTLELSVMPKDEDILQVLQFTKDVTALAYSQDAYLKGNEAYSGNARNIPEPPPICYPWLPSAPSAMAQPVEISPPDSSLSKQQTSTPVLTQPGRAYRMEIQVPPSPTDVAKSNTAVCVCNESVRTVIVPSEKVVDLLSNRNNHTGPSHRTEEVRYGVSEQTSLKTVSRTTSPPLSIPTTHLIHQPAGSRSLEPSGILLKSGNYSGHSDGISSSRSQAVEAPSVSVNHYSPNSHQHIDWKNYKTYKEYIDNRRLHIGCRTIQERLDSLRAASQSTTDYNQVVPNRTTLQGRRRSTSHDRVPQSVQIRQRSVSQERLEDSVLMKYCPRSASQGALTSPSVSFSNHRTRSWDYIEGQDETLENVNSGTPIPDSNGEKKQTYKWSGFTEQDDRRGICERPRQQEIHKSFRGSNFTVAPSVVNSDNRRMSGRGVGSVSQFKKIPPDLKTLQSNRNFQTTCGMSLPRGISQDRSPLVKVRSNSLKAPSTHVTKPSFSQKSFVSIKDQRPVNHLHQNSLLNQQTWVRTDSAPDQQVETGKSPSLSGASAKPAPQSSENAGTSDLELPVSQRNQDLSLQEAETEQSDTLDNKEAVILREKPPSGRQTPQPLRHQSYILAVNDQETGSDTTCWLPNDARREVHIKRMEERKASSTSPPGDSLASIPFIDEPTSPSIDHDIAHIPASAVISASTSQVPSIATVPPCLTTSAPLIRRQLSHDHESVGPPSLDAQPNSKTERSKSYDEGLDDYREDAKLSFKHVSSLKGIKIADSQKSSEDSGSRKDSSSEVFSDAAKEGWLHFRPLVTDKGKRVGGSIRPWKQMYVVLRGHSLYLYKDKREQTTPSEEEQPISVNACLIDISYSETKRKNVFRLTTSDCECLFQAEDRDDMLAWIKTIQESSNLNEEDTGVTNRDLISRRIKEYNNLMSKAEQLPKTPRQSLSIRQTLLGAKSEPKTQSPHSPKEESERKLLSKDDTSPPKDKGTWRKGIPSIMRKTFEKKPTATGTFGVRLDDCPPAHTNRYIPLIVDICCKLVEERGLEYTGIYRVPGNNAAISSMQEELNKGMADIDIQDDKWRDLNVISSLLKSFFRKLPEPLFTNDKYADFIEANRKEDPLDRLKTLKRLIHDLPEHHYETLKFLSAHLKTVAENSEKNKMEPRNLAIVFGPTLVRTSEDNMTHMVTHMPDQYKIVETLIQHHDWFFTEEGAEEPLTTVQEESTVDSQPVPNIDHLLTNIGRTGVSPGDVSDSATSDSTKSKGSWGSGKDQYSRELLVSSIFAAASRKRKKPKEKAQPSSSEDELDNVFFKKENVEQCHNDTKEESKKESETLGRKQKIIIAKENSTRKDPSTTKDEKISLGKESTPSEEPSPPHNSKHNKSPTLSCRFAILKESPRSLLAQKSSHLEETGSDSGTLLSTSSQASLARFSMKKSTSPETKHSEFLANVSTITSDYSTTSSATYLTSLDSSRLSPEVQSVAESKGDEADDERSELISEGRPVETDSESEFPVFPTALTSERLFRGKLQEVTKSSRRNSEGSELSCTEGSLTSSLDSRRQLFSSHKLIECDTLSRKKSARFKSDSGSLGDAKNEKEAPSLTKVFDVMKKGKSTGSLLTPTRGESEKQEPTWKTKIADRLKLRPRAPADDMFGVGNHKVNAETAKRKSIRRRHTLGGHRDATEISVLNFWKVHEQSGERESELSAVNRLKPKCSAQDLSISDWLARERLRTSTSDLSRGEIGDPQTENPSTREIATTDTPLSLHCNTGSSSSTLASTNRPLLSIPPQSPDQINGESFQNVSKNASSAANAQPHKLSETPGSKAEFHPCL
notes: also called ARHGA21; source: endogenous, Caco-2, Caco-2 ShPTEN, HCT116 and PTEN-/- HCT116 cells (lysate, membrane fraction, or fixed cells)

Key:
β-Arrestin1 [1] = target: T1, β-Arrestin1 (human (endogenous in Caco-2 and HCT116), UniProt P49407 1-418); test: proximity ligation; Duolink II red kit on fixed, permeabilised cells; PTEN-/- HCT116 cells transfected 24 hr with GFP-tagged EV or PTEN constructs, HCT116 cells as positive control; signal as AI units, n = 35 cells per condition in triplicate; conditions: partners not purified
T1 construct: β-Arrestin1, endogenous in human colorectal cell lines Caco-2 and HCT116 and their PTEN-deficient subclones; Precipitated with anti-β-Arrestin1 (bait of the co-IPs); detected with mouse anti-β-Arrestin1 in the PLA; also called Beta-Arrestin1; source: endogenous, Caco-2, Caco-2 ShPTEN, HCT116 and PTEN-/- HCT116 cells (lysate, membrane fraction, or fixed cells)

β-Arrestin1 [2] = target: T1, β-Arrestin1; test: cell-based or functional assay

T1 sequence (P49407 whole entry): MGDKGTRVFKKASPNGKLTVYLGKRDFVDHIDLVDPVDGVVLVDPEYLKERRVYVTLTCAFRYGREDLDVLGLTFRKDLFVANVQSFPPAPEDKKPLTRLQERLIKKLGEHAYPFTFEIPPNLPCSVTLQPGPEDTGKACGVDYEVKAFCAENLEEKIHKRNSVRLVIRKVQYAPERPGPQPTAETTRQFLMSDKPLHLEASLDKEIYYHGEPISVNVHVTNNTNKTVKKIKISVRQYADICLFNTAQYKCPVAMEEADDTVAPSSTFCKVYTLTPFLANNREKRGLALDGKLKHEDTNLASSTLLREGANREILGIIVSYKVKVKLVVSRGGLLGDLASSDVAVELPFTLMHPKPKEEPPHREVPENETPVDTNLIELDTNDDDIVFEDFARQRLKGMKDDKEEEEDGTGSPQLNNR

Binder | PLA interaction AI (β-Arrestin1 [1]) [AI units] | Cdc42-GTP (ADU, fold) in HCT116 cells after pep24 vs control peptide (β-Arrestin1 [2]) [fold change] | Cdc42-GTP (fold change, ADU) in Caco-2 cells after 10 μM pep24 vs control peptide (β-Arrestin1 [2]) [fold change]
B1 | 69.8 | – | –
B2 | 101 | – | –
B3 | 123 | 0.44 | 0.48
